The values that follow come from publication PMC7417364.

This assay concerns the target Paracoccidioides brasiliensis 1-Cys peroxiredoxin (PbPrx1), recombinant (Paracoccidioides brasiliensis (isolate Pb18)). Description: SEC; analytical HPLC, Phenomenex BioSep-SEC-S3000 column, 50 uM protein in 100 mM Tris-HCl pH 7.4, run in 100 mM Tris-HCl pH 7.4 with 50 mM NaCl, 1.0 mL/min; samples treated beforehand with 5 mM TCEP (reduced) or 1.2 molar equivalents of H2O2 (oxidised) for 30 min at 25 C; dimeric in both redox states. In general terms: In gel filtration, larger molecules generally elute earlier.

The term stoichiometry N denotes a count of units in the complex or per binding partner.

As to “Paracoccidioides brasiliensis 1-Cys peroxiredoxin (PbPrx1), recombinant (enzyme)”, the stoichiometry N was 2.
